For test [1], the target named is T1, human IL-23R, cell-expressed (human, UniProt Q5VWK5 24-629).
T1 sequence (looked up): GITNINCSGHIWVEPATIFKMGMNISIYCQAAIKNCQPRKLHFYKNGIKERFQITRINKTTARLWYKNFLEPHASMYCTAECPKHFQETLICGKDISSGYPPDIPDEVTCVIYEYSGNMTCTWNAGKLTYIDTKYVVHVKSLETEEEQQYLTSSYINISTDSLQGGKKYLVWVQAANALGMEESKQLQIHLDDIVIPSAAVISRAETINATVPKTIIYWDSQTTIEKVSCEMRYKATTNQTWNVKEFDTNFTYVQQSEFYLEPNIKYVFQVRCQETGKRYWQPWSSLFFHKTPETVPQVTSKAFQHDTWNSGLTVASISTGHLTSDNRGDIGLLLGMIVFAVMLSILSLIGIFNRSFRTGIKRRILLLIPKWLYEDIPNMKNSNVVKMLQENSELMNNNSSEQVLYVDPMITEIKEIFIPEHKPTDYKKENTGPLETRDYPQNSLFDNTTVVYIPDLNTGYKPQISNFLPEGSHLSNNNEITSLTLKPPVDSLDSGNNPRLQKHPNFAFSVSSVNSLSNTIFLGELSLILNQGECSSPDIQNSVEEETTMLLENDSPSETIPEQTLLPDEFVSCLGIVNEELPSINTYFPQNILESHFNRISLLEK
The experiment in a line: cell-based or functional assay.

The target in test [2] is T2, human IL-23R extracellular domain Fc-fusion (human, UniProt Q5VWK5 24-355).
T2 construct: extracellular domain; bought; also called IL-23R-Fc
T2 sequence (looked up): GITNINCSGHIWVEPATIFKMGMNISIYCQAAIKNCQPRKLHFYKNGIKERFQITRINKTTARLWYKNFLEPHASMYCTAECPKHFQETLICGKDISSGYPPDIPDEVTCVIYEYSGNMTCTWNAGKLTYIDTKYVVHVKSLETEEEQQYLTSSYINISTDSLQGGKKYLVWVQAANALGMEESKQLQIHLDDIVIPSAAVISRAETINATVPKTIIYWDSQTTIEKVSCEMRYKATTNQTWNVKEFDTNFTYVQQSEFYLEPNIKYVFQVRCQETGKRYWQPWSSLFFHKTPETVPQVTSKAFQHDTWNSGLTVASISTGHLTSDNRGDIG
The experiment in a line: competition ELISA, coated IL-23 + IL-23R-Fc. On the technique in general: ELISA stands for enzyme-linked immunosorbent assay.

Test [3] has as its target T2, human IL-23R extracellular domain …. The experiment in a line: competition ELISA, ratio to monovalent IL23R#19.
For test [4], the target named is T3, human CD4, cell-expressed (human, UniProt P01730 26-458).
T3 construct: whole, on cells
Description: flow cytometry on MOLM-13 cells (CD4, no IL12R or IL23R), upper right panel.

In test [5] the target is T3, human CD4, cell-expressed. Description: flow cytometry on activated T cells of donor D838 (very high CD4), lower left panel. On the technique in general: A flow cytometer gives signals particle by particle.
Test [6] addresses T2, human IL-23R extracellular domain …. The experiment in a line: competition ELISA, ratio to monovalent IL23R#20.
For test [7], the target named is T4, human IL12Rβ1, cell-expressed (human, UniProt P42701 24-662).
T4 construct: whole, on cells; in the context of the heterodimeric receptor; also called IL12Rb1
Description: flow cytometry on isolated CD8+ T cells of donor D863, anti-Flag detection.

The values that follow come from patent publication US20160251440A1 (Ablynx, published 2016).

B1: CD4#8-35GS-IL23R#19 (bispecific antibody)
chain: EVQLVESGGGSVQPGGSLTLSCGTSGRTFNVMGWFRQAPGKEREFVAAVRWSSTGIYYTQYADSVKSRFTISRDNAKNTVYLEMNSLKPEDTAVYYCAADTYNSNPARWDGYDFRGQGTLVTVSSGGGGSGGGGSGGGGSGGGGSGGGGSGGGGSGGGGSEVQLVESGGGLVQPGGSLTLSCVASGRTFSTDVMGWFRQAPGKEREFVAAHRTSGISTVYAASVKGRFTISRDNAKNTVYLGMKSLKPEDTAVYVCAAGSDASGGYDYWGQGTLVTVSS
notes: also called BI#45; T023200045
Turning to B1, the “IC50, IL-17 release, PBMC D840” value in test [1] was found to be 24.2 nM. Further, in test [1], the “fold ctrl, IL-17 release” value worked out at 4.1 fold. Moreover, the IC50 in test [2] came out at 6.6 nM. The fold ctrl in test [3] is 0.3 fold. For the same molecule, the “EC50 (read off the curve)” value in test [4] and in test [5] was ~1 nM throughout.

B2: IL23R#20-35GS-CD4#8 (bispecific antibody)
chain: EVQLVESGGGLVQAGGSLRLSCAASGRTFSSYAMGWFRQAPGKDREFVAAISWIGESTYYADSVKGRFTISRDNAKNTVYLRMNSLKPEDTAVYYCAADLYYTAYVAAADEYDYWGQGTLVTVSSGGGGSGGGGSGGGGSGGGGSGGGGSGGGGSGGGGSEVQLVESGGGSVQPGGSLTLSCGTSGRTFNVMGWFRQAPGKEREFVAAVRWSSTGIYYTQYADSVKSRFTISRDNAKNTVYLEMNSLKPEDTAVYYCAADTYNSNPARWDGYDFRGQGTLVTVSS
notes: also called BI#43; T023200043
Take B2: the IC50 in test [2] came to 11 nM. Also, in test [6], the fold ctrl is 1.5 fold. For the same molecule, the “EC50 (read off the curve)” value in test [4] and in test [5] was ~1 nM throughout.

B3: CD4#8-35GS-IL23R#20 (bispecific antibody)
chain: EVQLVESGGGSVQPGGSLTLSCGTSGRTFNVMGWFRQAPGKEREFVAAVRWSSTGIYYTQYADSVKSRFTISRDNAKNTVYLEMNSLKPEDTAVYYCAADTYNSNPARWDGYDFRGQGTLVTVSSGGGGSGGGGSGGGGSGGGGSGGGGSGGGGSGGGGSEVQLVESGGGLVQAGGSLRLSCAASGRTFSSYAMGWFRQAPGKDREFVAAISWIGESTYYADSVKGRFTISRDNAKNTVYLRMNSLKPEDTAVYYCAADLYYTAYVAAADEYDYWGQGTLVTVSS
notes: also called BI#44; T023200044
As for B3, the “IC50, IL-17 release, PBMC D840” value in test [1] worked out at 22 nM. Moreover, in test [2], the IC50 worked out at 15 nM. The fold ctrl in test [6] amounted to 1.1 fold. Also, the “EC50 (read off the curve)” value in test [4] and in test [5] was ~1 nM in each case.

B4: IL23R#19-35GS-CD4#8 (bispecific antibody)
chain: EVQLVESGGGLVQPGGSLTLSCVASGRTFSTDVMGWFRQAPGKEREFVAAHRTSGISTVYAASVKGRFTISRDNAKNTVYLGMKSLKPEDTAVYVCAAGSDASGGYDYWGQGTLVTVSSGGGGSGGGGSGGGGSGGGGSGGGGSGGGGSGGGGSEVQLVESGGGSVQPGGSLTLSCGTSGRTFNVMGWFRQAPGKEREFVAAVRWSSTGIYYTQYADSVKSRFTISRDNAKNTVYLEMNSLKPEDTAVYYCAADTYNSNPARWDGYDFRGQGTLVTVSS
notes: also called BI#42; T023200042
Regarding B4, the half-maximal inhibitory concentration (IC50) in test [2] was determined as 6.1 nM. In addition, the fold ctrl in test [3] worked out at 0.3 fold. Further, in test [7], the binding result is “no binding (tested: 250 nM)”. The “EC50 (read off the curve)” value is ~4 nM in test [4] and ~1 nM in test [5].

The term IC50 denotes the concentration at which inhibition is half-maximal. In general, EC50 (read off the curve) refers to the concentration giving half of the maximal effect. Higher therefore signals a less potent agent.
